Ends that are not written are not given here.
Target: T1, hERα^CDE, multidomain segment of human estrogen receptor alpha containing both DBD and LBD (residues … (human, UniProt P03372 181-552))
T1 construct: Expressed in E. coli from the pMCSG7 vector; It functions as a homodimer; In the SPR assay it was injected as the complex with ERE-DNA and estradiol; also called hERα^CDE-DNA-E2 complex
T1 sequence: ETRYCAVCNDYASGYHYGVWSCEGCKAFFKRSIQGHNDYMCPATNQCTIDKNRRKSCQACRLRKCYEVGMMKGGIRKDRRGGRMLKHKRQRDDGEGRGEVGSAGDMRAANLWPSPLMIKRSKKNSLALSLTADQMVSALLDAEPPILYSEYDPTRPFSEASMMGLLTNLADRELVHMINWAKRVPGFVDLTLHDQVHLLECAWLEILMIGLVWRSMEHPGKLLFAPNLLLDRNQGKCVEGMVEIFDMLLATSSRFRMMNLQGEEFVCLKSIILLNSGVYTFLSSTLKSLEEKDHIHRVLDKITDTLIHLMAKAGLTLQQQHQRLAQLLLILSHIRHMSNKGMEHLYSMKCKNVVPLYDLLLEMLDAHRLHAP
Assay: SPR (Biacore T100): biotinylated TIF2 peptide immobilised on an SA chip, hERα^CDE-DNA-E2 complex injected at 0-5 µM, 25° C [panel e]
Description: Measurements were conducted at 25° C. using a Biacore T100 system.

B1: coactivator TIF2 peptide (KENALLRYLLDKDD) (peptide)
peptide: KENALLRYLLDKDD
modifications: also: biotinylated (position not given here)
notes: For SPR the peptide was biotinylated and captured on an SA sensor chip at 10 RUs; also called biotinylated TIF2 peptide
  binding result: binds

From patent publication US20200166530A1 (CASE WESTERN RESERVE UNIVERSITY, published 2020)
